EC50 and Kd data for one molecule are collected here from patent US20240016917A1 (ACADEMIA SINICA, published 2024).

The target of test [1] is T1, SARS-CoV-2 S protein (entire S ectodomain) (SARS-CoV-2, UniProt P0DTC2 14-1209).
A further test has as its target Beta (SARS-CoV-2).
The next test has as its target Alpha (SARS-CoV-2).
Test [2] addresses T1, SARS-CoV-2 S protein (entire S …). Description: biolayer interferometry (BLI). (BLI is a label-free optical method that tracks binding on a fibre tip over time.)

B1: monoclonal antibody (mAb) m31A7 (antibody, V domains shown)
VH: EVQLQQSGPEMVKPGASVKISCKTSGYTFTEYTIYWVKQSHGKSLEWLGGINPNIGDTTYNQKFKGKATLTVDTSSSTAYMELRSLTSEDSAVYYCAREVYNYSFAYWGQGTLVTVSA
VL: DIVMSQSPSSLAVSVGEKVTMSCKSSQSLLYSSNQKNYLAWYQQKLGQTPKLLIYWASSRESGVPDRFTGSGSGTDFTLTISSVRAEDLAVYYCQQYYRYPLTFGVGTKLELKR
What is called EC50 is the concentration needed to bring the measured effect to its halfway point. Read a low EC50 as greater potency. In general, Kd refers to the concentration at which binding is half-saturated. Consider B1, for which the EC50 in test [1] came out at 31.2 pM; in the test with D614G, 32.1 pM; in the test with WT, 68.5 pM; with Beta, 32.5 pM; with Alpha, 44.6 pM. In addition, the Kd in test [2] came to 70.9 pM.
